We go through 1 substance from US20190211400A1.

The experiment has as its target death receptor (DR) 3 on mouse mucosal CD4+ T cells (mouse). Briefly: cell-based or functional assay.

Substance “TL1A added to mouse MLN and LP mononuclear cell cultures (from UniProt Q5UBV8 76-252) (ligand)” had a numbers of IFN-gamma producing CD4+ cells (intracellular staining of LPMC, without vs. with TL1A) of 1 and a numbers of IL-17-producing CD4+ cells (intracellular staining of LPMC, without vs. with TL1A) of 0.89.
